Data as given in patent publication US20250122242A1 (WISCONSIN ALUMNI RESEARCH FOUNDATION, published 2025).

T1: hIAPP-T7n (human islet amyloid polypeptide fused through a GGSGG linker to the N-terminal half of split T7 … (human))
T1 chain: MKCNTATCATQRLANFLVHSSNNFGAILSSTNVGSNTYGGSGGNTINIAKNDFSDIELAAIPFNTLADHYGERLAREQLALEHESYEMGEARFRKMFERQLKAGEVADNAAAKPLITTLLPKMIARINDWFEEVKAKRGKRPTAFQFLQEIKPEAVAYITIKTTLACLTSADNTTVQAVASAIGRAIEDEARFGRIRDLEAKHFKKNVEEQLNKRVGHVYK


How the values were obtained:
[1] = target: Aβ42-T7n (amyloid-β42 fused through a GGSGG linker to the N-terminal half of split T7 RNA polymerase); experiment: cell-based or functional assay
[2] = target: T1, hIAPP-T7n (human islet amyloid …); experiment: cell-based or functional assay

| Binder | propagation of clonal SP on hIAPP against Aβ42 selection cells [2] | other results |
| --- | --- | --- |
| cyclo(CKVWQLL) (not fully specified; printed as cyclo-CKVWQLL) [cyclo-CKVWQLL (SEQ ID NO:30) encoded on parent selection phage as SICLOPPS precursor] |  | fold phage propagation on E. coli encoding the Aβ42-T7n selection, against SP carrying scrambled control cyclo-CVQWLKL [1]: ~500 fold |
| cyclo(CKVWQLL) (not fully specified; printed as cyclo-CKVWQLL) |  | fold phage propagation on E. coli encoding the Aβ42-T7n selection, against scrambled control [1]: ~300 fold |
| cyclo(CRCVFSG) (not fully specified; printed as cyclo-CRCVFSG; cysteine pairing not given here) [cyclo-CRCVFSG (SEQ ID NO:69) encoded on selection phage as SICLOPPS precursor] | ~10 fold |  |
| cyclo(CDLGVFR) (not fully specified; printed as cyclo-CDLGVFR) [cyclo-CDLGVFR (SEQ ID NO:68) encoded on selection phage as SICLOPPS precursor] | ~1000 fold |  |
